Assay results published in PMC10676424, “VirB, a transcriptional activator of virulence in Shigella flexneri, uses CTP as a cofactor” (Communications Biology, 2023).

Legend:
Sfl VirB = molecular target: T1, Sfl VirB (Shigella flexneri, UniProt P0A247); experiment: isothermal titration calorimetry; format: binding
T1 construct: full length, N-terminal GFP tag removed with HRV-3C protease, made in E. coli BL21-Gold (DE3), dimer; gene on invasion plasmid pINV

[1] = molecular target: the molecule itself; experiment: cross-linking; plasmid entrapment assay: 2 uM VirB, 250 uM CTP, 50 nM plasmid DNA, 1 mM BMOE, room temperature; low stringency buffer (150 mM NaCl, 50 mM Tris-HCl pH 7.5, 5 mM MgCl2) or high stringency buffer (25 mM HEPES/NaOH pH 7.5, 500 mM NaCl, 5 mM MgCl2, 1 mM DTT, 10 uM BSA, 0.01% Tween 20); SDS-PAGE and agarose gel
[2] = molecular target: the molecule itself; experiment: cross-linking; site-specific cysteine cross-linking with 1 mM BMOE; 10 uM protein, with or without 1 mM CTP and 1 uM 40-bp DNA; 150 mM NaCl (also 500/1000 mM), 50 mM Tris-HCl pH 7.5, 5 mM MgCl2; room temperature (25 °C); SDS-PAGE, Coomassie, band quantification

Molecule	binding result [2]	also measured
Nc1ccn([C@@H]2O[C@H](COP(=O)(O)OP(=O)(O)OP(=O)(O)O)[C@@H](O)[C@H]2O)c(=O)n1 [CTP]	–	Kd (Sfl VirB): ~1 µM
VirB(C5S, Q15C, A297C) (natural protein, not shown: GFP, N-terminal, cleaved) MVDLSNDLLSIKEGCKKEFTLHSGNKVSFIKAKIPHKRIQDLTFVNQKTNVRDQESLTEESLADIIKTIKLQQFFPVIGREIDGRIEILDGTRRRASAIYAGADLEVLYSKEYISTLDARKLANDIQTAKEHSIRELGIGLNFLKVSGMSYKDIAKKENLSRAKVTRAFQAASVPQEIISLFPIASELNFNDYKILFNYYKGLEKANESLSSTLPILKEEIKDLDTNLPPDIYKKEILNIIKKSKNRKQNPSLKVDSLFISKDKRTYIKRKENKTNRTLIFTLSKINKTVQREIDECIRDIISRHLSSS	–	stoichiometry N [1]: 2
VirB(C5S, I30C) (natural protein, also called engineered C5S, I30C; not shown: GFP, N-terminal, cleaved) MVDLSNDLLSIKEGQKKEFTLHSGNKVSFCKAKIPHKRIQDLTFVNQKTNVRDQESLTEESLADIIKTIKLQQFFPVIGREIDGRIEILDGTRRRASAIYAGADLEVLYSKEYISTLDARKLANDIQTAKEHSIRELGIGLNFLKVSGMSYKDIAKKENLSRAKVTRAFQAASVPQEIISLFPIASELNFNDYKILFNYYKGLEKANESLSSTLPILKEEIKDLDTNLPPDIYKKEILNIIKKSKNRKQNPSLKVDSLFISKDKRTYIKRKENKTNRTLIFTLSKINKTVQREIDEAIRDIISRHLSSS	binds	–
VirB (natural protein, not shown: GFP, N-terminal, cleaved) MVDLCNDLLSIKEGQKKEFTLHSGNKVSFIKAKIPHKRIQDLTFVNQKTNVRDQESLTEESLADIIKTIKLQQFFPVIGREIDGRIEILDGTRRRASAIYAGADLEVLYSKEYISTLDARKLANDIQTAKEHSIRELGIGLNFLKVSGMSYKDIAKKENLSRAKVTRAFQAASVPQEIISLFPIASELNFNDYKILFNYYKGLEKANESLSSTLPILKEEIKDLDTNLPPDIYKKEILNIIKKSKNRKQNPSLKVDSLFISKDKRTYIKRKENKTNRTLIFTLSKINKTVQREIDEAIRDIISRHLSSS	binds	–
